Experimental findings from article PMC10397247 are described below.

Common to all, as to test: two-hybrid library CCNG1;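 note: natural log of median RNA to DNA barcode read ratio; higher means stronger binding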
One experiment addresses T1, P2mSN.
T1 chain: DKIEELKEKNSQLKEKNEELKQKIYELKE

For another experiment, the target named is T2, P3mSN.
T2 chain: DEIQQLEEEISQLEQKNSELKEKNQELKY

The next experiment concerns the target T3, P4bH1.
T3 chain: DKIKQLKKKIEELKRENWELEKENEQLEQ

A further experiment deals with T4, P4mSN.
T4 chain: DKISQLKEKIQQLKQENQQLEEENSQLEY

A further experiment addresses T5, P5mSN.
T5 chain: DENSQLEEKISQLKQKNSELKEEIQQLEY

In the next experiment the target is T6, P6mSN.
T6 chain: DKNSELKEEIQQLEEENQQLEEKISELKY

The next experiment concerns the target T7, P7mSN.
T7 chain: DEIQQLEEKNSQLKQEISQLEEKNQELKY

The target of another experiment is T8, P8mSN.
T8 chain: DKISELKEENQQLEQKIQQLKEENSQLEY

In a further experiment the target is T9, P9mSN.
T9 chain: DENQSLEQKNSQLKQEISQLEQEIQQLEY

For the next experiment, the target named is T10, P1mSN.
T10 chain: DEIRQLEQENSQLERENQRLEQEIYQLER

For a further experiment, the target named is T11, 4H3070-bH.
T11 chain: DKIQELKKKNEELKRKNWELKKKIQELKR
Conditions: mean of both orientations.

For a further experiment, the target named is T12, 4H342-bH.
T12 chain: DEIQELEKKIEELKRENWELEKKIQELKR

Another experiment addresses T13, 4H3632-bH.
T13 chain: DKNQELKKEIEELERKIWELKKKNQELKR

In the next experiment the target is T14, 4H496-bH.
T14 chain: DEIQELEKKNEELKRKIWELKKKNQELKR

DKIEELKEKNSQLKEKNEELKQKIYELKE [P2mSN]: the interaction score in the experiment with P2mSN was -1.97; with P3mSN, -0.831; with P4bH1 it was -1.37; in the experiment with P4mSN it was -0.0295; in the experiment with P5mSN it was -0.724; with P6mSN, -0.752. For the same molecule, the results for the interaction score with P7mSN, with P8mSN and with P9mSN were -0.243, -1.26 and -1.13, respectively.
Turning to DEIRQLEQENSQLERENQRLEQEIYQLER [P1mSN], the interaction score was -1.23 in the experiment with P1mSN; 1.73 with P2mSN; -1.95 with P3mSN; -1.09 in the experiment with P4mSN; -1.04 with P5mSN; -0.582 in the experiment with P6mSN. Moreover, the interaction score is -1.01 with P7mSN, -1.17 with P8mSN and -2.07 with P9mSN.
On to DKIQELKKKNEELKRKNWELKKKIQELKR [4H3070-bH], for which the interaction score was 0.665 in the experiment with 4H3070-bH, 1.49 with 4H342-bH, -0.214 with 4H3632-bH and -0.307 in the experiment with 4H496-bH.
